Like-named read-outs stand apart in the source and are kept apart here.
How the values were obtained:
[1] = system: subjects with acute ischemic stroke (AIS); conditions: cited from earlier work
[2] = system: patients with Acute Ischemic Stroke (AIS); assay: Study 201: Phase 2 single-dose study in patients with Acute Ischemic Stroke, efficacy (NIHSS, mRS); assay type: in vivo, human; conditions: Day 90
Excerpt: The objective of this Phase 2, double-blind, single-dose, randomized, placebo-controlled study is to evaluate the safety, tolerability, and potential efficacy of DC009 drug product in patients with Acute Ischemic Stroke (AIS). The safety and potential efficacy outcomes from this Phase 2 study will guide the design of future studies in patients with acute ischemic stroke. Eligible patients will be randomized 2:1 to receive DC009 drug product or placebo via a 15-minute IV infusion to obtain a total of approximately 24 evaluable patients. Eligible patients will receive a single 0.025 mg/kg dose of DC009 drug product or placebo within 24 hours after the onset of stroke symptoms.
The key inclusion criteria are as follows: Subject a) are to be aged 18-90 years, inclusive, at the time of screening, b) have a NIHSS of 4-30, c) clinical diagnosis of AIS within 24 hours after stroke symptom onset.
Tissue plasminogen activator (alteplase) is the only approved drug treatment for stroke in the US and, per the labeling, must be administered within 3 hours of stroke symptom onset. The approved window of administration in other countries varies. Because there is no approved drug treatment for acute ischemic stroke for administration beyond 3 hours of stroke symptom onset in the US, a placebo-controlled study would be ethically acceptable and is necessary in order to evaluate the drug effect objectively. Preliminary efficacy will be evaluated by assessing the infarct volume, occurrence of recurrent stroke, neurological outcome measured by NIHSS and functional independence measured by Modified Rankin Scale (mRS).
• The occurrence of symptomatic intracranial hemorrhage (sICH) within 36 hours after dosing, clinical deterioration defined as an increase in the NIHSS of 4 points or more and confirmed by computed tomography or magnetic resonance imaging. Secondary Endpoint: • The occurrence of symptomatic intracranial hemorrhage (sICH) and asymptomatic intracranial hemorrhage (aICH) within 7 days after dosing • The occurrence of mortality due to intracerebral or other major bleeding complications within 24 hours, 7 days, 30 days, and 90 days after dosing. • Number and severity of AEs within 90 days after dosing • The occurrence of recurrent stroke within 90 days after dosing • Functional outcome such as mRS • Neurological outcome such as NIHSS at 30 days • The change of infarct volume in CT or MRI examination at 24 hours and 7 days • Plasma PK parameters of DC009 Results Baseline Characterization

[3] = Plasma pharmacokinetics after single IV bolus in Sprague Dawley rat; assay type: in vivo; conditions: for AUC(0-inf) / Cmax / AUC(0-t): male, Sprague-Dawley, rat, plasma, n=3; for AUC(0-t): read-out: AUClast, Mean (converted)
Method: The plasma pharmacokinetics of DC009 was studied in SD Rat following a single IV bolus administration of DC009. Male SD rats were dosed with DC009 at 0.001, 0.01, 0.1, 1 and 10 mg/kg by intravenous bolus injection with a dose volume of 1 mL/kg (n=3 per treatment group).

[4] = system: minipigs; assay: Pre-clinical toxicity in minipig; assay type: in vivo; conditions: set from pre-clinical toxicity result in minipigs
Method: According to inventors' pre-clinical toxicity result of DC009 in minipig, the inventors set up a limit on plasma exposure of 1177 ng/mL in minipigs. The inventors then set up a safety factor to provide a margin of safety for protecting human subjects receiving the initial clinical dose. As described in the Background, the default safety factor is 10 but it may be adjusted based on available safety data.

[5] = 0.001 mg/kg IV bolus, some concentrations below LLOQ 5 ng/mL
[6] = 0.01 mg/kg IV bolus, some concentrations below LLOQ 5 ng/mL

rtPA: Alteplase (Activase), a recombinant tissue-type plasminogen activator (rtPA) [reference compound]
risk of symptomatic intracerebral hemorrhage [1]: ~5 fold

CC(NC(=O)C1CCCN1)C(=O)NC(CCCCN)C(=O)NCCCCC(NC(=O)C1Cc2cc(O)c(O)cc2C(C)(C)N1)C(=O)O (stereo not drawn) [DC009, 3S-6,7-dihydroxy-1,1-dimethyl-1,2,3,4-tetrahydro-isoquinoline-3-acyl-Lys(Pro-Ala-Lys)]
subjects with mRS of 0-1 ([2]; pre-dose 0%, 3 subjects): 21%
subjects with mRS Score 3 ([2]; pre-dose 6%): 29%
subjects with mRS Score 2 ([2]; pre-dose 13%): 29%
subjects with mRS Score 5 or 4 ([2]; pre-dose 81%): 21%
dose proportionality of Cmax and AUC0-∞ ([3]; dose of 0.1 to 10 mg/kg groups): approximately dose-proportional increases
AUC(0-inf) [3, 5]: 1.88 ng·h/mL
Cmax [3, 5]: 1.6 ng/mL
AUC(0-t) [3, 5]: 1.76 ng·h/mL
AUC(0-inf) [3, 6]: 4.04 ng·h/mL
Cmax [3, 6]: 6.1 ng/mL
AUC(0-t) [3, 6]: 3.35 ng·h/mL
AUC(0-inf) ([3]; 0.1 mg/kg IV bolus): 8.31 ng·h/mL
Cmax ([3]; 0.1 mg/kg IV bolus): 59.9 ng/mL
AUC(0-t) ([3]; 0.1 mg/kg IV bolus): 7.89 ng·h/mL
AUC(0-inf) ([3]; 1 mg/kg IV bolus): 53.2 ng·h/mL
Cmax ([3]; 1 mg/kg IV bolus): 426 ng/mL
AUC(0-t) ([3]; 1 mg/kg IV bolus): 52.8 ng·h/mL
AUC(0-inf) ([3]; 10 mg/kg IV bolus): 937 ng·h/mL
Cmax ([3]; 10 mg/kg IV bolus): 8120 ng/mL
AUC(0-t) ([3]; 10 mg/kg IV bolus): 936 ng·h/mL
limit on plasma exposure [4]: 1177 ng/mL

— patent US12648942B2, “Method for treating acute ischemic stroke” (Lumosa Therapeutics Co., LTD, priority 2021, dated 2026)
